One test concerns the target LAMB1 (UniProt P07942). Put plainly: co-IP, anti-FLAG, lysate of C-FLAG B3GNT2 cells, mass spectrometry.
The target in the next test is SERPINE2 (UniProt P07093). Described as above.
Another test addresses LRP2 (UniProt P98164). Described as above.
In the next test the target is OS9 (UniProt Q13438). The description is as above.
The next test addresses ARPC2 (UniProt O15144). Described as above.
In a further test the target is ABCF1 (UniProt Q8NE71). The description is as above.
The target in the next test is RPL29 (UniProt P47914). The description is as above.
A further test addresses CSPG4 (UniProt Q6UVK1). The test is described as above.
The target of another test is RBMX (UniProt P38159). The test is described as above.
The target in another test is RPL18A (UniProt Q02543). Described as above.
Another test has as its target NCL (UniProt P19338). The description is as above.
A further test deals with HSPA5 (UniProt P11021). Described as above.
The target of another test is TM9SF3 (UniProt Q9HD45). The description is as above.
A further test addresses PGK1 (UniProt P00558). The test is described as above.
In a further test the target is RAB1B (UniProt Q9H0U4). The test is described as above.
In the next test the target is SLC25A1 (UniProt P53007). The description is as above.
Another test concerns the target SLC25A3 (UniProt Q00325). The description is as above.
The target in a further test is LOXL4 (UniProt Q96JB6). The test is described as above.
In another test the target is CEP170 (UniProt Q5SW79). Described as above.
Another test concerns the target PPIB (UniProt P23284). The test is described as above.
For a further test, the target named is MAP1B (UniProt P46821). The test is described as above.
The next test has as its target DPM1 (UniProt O60762). The test is described as above.
For the next test, the target named is TRIM28 (UniProt Q13263). The description is as above.
The next test deals with GNAS (UniProt Q5JWF2). The test is described as above.
Another test has as its target SLC25A10 (UniProt Q9UBX3). Described as above.
Another test addresses HSPH1 (UniProt Q92598). Described as above.
The target of another test is CALM2 (UniProt P0DP24). The description is as above.
In a further test the target is MYO1D (UniProt O94832). The test is described as above.
The target in the next test is CNP (UniProt P09543). The test is described as above.
In another test the target is LRPPRC (UniProt P42704). Described as above.
The next test deals with TNC (UniProt P24821). The description is as above.
The target of another test is RNASE1 (UniProt P07998). Described as above.
A further test addresses SMN1 (UniProt Q16637). The description is as above.
The target in the next test is LUC7L3 (human) (UniProt O95232). Put plainly: co-IP with anti-FLAG, N-FLAG B3GNT2, mass spectrometry.
For another test, the target named is C1orf68 (human) (UniProt Q5T750). Put plainly: co-IP, anti-FLAG, lysate of cells with N-FLAG B3GNT2; mass spectrometry.
The target of another test is GGCT (human) (UniProt O75223). The test is described as above.
Chain of GGCT (human) (O75223 whole entry): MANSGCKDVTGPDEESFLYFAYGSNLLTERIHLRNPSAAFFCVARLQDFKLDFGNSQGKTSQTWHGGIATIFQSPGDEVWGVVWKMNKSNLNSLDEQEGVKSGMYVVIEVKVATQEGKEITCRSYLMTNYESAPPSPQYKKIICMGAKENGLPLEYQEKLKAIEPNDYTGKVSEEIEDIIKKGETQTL

Chain of PGK1 (P00558 2-417 limits assumed): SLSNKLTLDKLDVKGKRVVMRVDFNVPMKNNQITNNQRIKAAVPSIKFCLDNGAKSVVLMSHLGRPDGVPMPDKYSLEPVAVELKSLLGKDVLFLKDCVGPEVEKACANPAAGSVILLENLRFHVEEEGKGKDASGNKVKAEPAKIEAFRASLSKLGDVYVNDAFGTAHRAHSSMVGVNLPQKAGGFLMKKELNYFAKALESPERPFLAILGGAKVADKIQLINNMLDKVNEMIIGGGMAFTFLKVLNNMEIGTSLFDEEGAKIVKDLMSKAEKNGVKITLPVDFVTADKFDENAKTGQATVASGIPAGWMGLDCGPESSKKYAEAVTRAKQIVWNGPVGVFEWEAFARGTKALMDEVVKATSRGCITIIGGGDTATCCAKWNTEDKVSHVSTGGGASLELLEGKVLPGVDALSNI
Chain of LAMB1 (P07942 22-1786 limits assumed): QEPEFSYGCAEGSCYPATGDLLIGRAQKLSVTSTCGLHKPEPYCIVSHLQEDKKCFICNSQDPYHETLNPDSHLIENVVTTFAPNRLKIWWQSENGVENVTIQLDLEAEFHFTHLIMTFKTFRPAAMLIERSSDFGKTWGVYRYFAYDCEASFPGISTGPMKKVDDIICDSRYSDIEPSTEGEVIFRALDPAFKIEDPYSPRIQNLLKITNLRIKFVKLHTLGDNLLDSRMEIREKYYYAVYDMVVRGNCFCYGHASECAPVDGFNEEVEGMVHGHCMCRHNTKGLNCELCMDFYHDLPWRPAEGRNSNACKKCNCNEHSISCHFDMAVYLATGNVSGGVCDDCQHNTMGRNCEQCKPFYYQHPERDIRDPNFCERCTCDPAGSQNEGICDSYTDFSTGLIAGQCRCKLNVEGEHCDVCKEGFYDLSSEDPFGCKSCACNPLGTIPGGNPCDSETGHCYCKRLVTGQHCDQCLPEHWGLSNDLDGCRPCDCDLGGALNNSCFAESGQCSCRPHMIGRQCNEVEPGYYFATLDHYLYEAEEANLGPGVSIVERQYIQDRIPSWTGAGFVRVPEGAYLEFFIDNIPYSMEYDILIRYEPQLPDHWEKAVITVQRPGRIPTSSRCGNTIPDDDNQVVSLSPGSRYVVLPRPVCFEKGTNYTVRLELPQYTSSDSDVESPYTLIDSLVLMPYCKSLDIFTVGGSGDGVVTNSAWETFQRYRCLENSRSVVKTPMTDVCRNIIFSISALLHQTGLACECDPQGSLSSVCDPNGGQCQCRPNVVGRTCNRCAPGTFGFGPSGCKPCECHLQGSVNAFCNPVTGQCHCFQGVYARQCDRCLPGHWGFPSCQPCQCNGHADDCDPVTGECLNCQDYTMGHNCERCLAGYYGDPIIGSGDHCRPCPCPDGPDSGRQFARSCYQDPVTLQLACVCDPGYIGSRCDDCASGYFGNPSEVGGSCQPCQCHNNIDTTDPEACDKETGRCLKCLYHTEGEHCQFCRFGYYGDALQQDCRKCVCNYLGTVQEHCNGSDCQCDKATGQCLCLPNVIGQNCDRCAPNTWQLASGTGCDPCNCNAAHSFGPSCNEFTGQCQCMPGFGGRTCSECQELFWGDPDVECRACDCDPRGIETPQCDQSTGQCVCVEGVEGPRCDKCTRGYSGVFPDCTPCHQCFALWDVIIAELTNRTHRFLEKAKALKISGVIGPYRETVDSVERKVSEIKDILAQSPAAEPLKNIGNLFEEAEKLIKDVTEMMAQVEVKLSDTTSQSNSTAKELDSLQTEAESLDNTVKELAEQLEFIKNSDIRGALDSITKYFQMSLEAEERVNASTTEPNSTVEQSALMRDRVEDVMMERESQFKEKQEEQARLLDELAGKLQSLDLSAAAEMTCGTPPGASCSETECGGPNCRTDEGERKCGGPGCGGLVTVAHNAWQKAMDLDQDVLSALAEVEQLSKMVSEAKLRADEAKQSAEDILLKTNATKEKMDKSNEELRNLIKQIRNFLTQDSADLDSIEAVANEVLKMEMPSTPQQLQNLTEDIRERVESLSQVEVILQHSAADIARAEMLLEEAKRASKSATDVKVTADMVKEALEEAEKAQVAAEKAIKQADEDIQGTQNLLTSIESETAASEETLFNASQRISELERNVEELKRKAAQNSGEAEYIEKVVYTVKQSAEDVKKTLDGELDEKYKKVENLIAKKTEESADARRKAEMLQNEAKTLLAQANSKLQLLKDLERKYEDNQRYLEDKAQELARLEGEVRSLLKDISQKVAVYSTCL
Chain of HSPH1 (Q92598 other isoform, or with tags, fused parts or gaps limits assumed): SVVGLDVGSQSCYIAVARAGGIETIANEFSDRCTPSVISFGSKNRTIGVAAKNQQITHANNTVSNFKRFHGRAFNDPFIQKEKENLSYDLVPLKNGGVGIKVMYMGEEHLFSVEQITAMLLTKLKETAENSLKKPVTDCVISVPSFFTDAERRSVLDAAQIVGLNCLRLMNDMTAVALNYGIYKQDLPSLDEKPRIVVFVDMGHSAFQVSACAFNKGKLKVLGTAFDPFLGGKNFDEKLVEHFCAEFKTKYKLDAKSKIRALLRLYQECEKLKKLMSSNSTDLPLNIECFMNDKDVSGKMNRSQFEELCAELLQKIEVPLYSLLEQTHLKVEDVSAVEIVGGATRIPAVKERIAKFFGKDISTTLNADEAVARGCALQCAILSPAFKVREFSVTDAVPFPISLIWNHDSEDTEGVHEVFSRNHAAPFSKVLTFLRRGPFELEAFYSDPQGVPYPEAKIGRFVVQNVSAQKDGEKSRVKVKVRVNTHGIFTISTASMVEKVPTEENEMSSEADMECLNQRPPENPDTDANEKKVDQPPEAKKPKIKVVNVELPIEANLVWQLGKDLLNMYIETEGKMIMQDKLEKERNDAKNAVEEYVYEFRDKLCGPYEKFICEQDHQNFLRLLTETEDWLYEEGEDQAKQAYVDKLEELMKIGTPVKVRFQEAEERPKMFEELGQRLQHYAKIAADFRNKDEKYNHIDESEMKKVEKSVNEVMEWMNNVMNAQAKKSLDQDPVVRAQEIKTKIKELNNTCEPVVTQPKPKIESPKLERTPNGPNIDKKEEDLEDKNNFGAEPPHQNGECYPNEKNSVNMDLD
Chain of CNP (P09543 21-418 limits assumed): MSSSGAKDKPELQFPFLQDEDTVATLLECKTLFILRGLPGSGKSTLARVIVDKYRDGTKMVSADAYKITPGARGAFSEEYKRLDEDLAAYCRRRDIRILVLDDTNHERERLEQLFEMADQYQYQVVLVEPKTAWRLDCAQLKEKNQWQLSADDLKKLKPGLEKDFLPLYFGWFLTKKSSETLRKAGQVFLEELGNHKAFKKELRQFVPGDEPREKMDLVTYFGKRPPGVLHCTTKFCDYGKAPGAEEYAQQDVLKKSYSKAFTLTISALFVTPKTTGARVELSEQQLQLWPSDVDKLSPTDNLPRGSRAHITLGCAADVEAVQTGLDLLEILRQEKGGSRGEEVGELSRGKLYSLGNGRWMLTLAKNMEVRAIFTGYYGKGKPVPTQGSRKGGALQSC
Chain of ABCF1 (Q8NE71 whole entry): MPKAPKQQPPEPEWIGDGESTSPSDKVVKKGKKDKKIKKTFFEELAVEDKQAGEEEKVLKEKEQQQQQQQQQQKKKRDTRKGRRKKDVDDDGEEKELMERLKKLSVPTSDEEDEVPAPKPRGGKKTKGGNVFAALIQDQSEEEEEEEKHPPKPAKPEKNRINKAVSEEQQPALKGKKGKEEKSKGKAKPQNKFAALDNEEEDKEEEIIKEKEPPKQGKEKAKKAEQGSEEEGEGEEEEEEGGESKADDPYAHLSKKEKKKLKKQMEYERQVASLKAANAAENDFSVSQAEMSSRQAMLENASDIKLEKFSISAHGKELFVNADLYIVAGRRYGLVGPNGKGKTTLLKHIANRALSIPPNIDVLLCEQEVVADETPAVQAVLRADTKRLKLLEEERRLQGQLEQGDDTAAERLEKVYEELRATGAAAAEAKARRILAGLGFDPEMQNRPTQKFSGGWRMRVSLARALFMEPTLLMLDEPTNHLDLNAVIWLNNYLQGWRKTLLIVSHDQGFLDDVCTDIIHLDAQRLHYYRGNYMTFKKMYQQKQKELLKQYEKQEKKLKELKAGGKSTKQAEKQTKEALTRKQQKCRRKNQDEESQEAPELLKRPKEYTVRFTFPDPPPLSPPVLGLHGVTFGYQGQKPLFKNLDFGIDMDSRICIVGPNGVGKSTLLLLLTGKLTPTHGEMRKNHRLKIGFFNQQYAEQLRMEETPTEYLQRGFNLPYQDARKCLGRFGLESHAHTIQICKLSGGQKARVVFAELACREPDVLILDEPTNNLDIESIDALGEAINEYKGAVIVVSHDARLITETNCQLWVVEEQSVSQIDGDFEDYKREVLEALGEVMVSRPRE
Chain of SERPINE2 (P07093 20-398 limits assumed): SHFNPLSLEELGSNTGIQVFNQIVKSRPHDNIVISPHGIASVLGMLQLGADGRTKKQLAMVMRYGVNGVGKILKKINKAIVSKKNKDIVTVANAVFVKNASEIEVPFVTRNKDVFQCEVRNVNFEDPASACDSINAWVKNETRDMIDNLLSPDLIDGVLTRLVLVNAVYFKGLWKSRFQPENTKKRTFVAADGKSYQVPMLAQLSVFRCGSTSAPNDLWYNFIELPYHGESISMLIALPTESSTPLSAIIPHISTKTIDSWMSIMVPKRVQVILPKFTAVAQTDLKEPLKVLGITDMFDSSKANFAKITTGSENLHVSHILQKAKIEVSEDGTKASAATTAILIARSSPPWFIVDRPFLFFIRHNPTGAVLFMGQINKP
Chain of PPIB (P23284 34-216 limits assumed): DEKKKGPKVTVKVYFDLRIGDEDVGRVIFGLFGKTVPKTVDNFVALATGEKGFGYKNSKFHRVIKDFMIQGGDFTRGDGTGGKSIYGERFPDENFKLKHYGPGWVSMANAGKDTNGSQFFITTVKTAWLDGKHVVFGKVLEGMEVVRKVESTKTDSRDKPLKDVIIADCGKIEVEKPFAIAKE

“C-terminal FLAG tagged B3GNT2 (from UniProt Q9NY97 1-397) (enzyme)”: the co-IP/MS count worked out at 2 in the test with LAMB1; 11 with SERPINE2; 2 with LRP2; 9 in the test with OS9; 2 in the test with ARPC2; 2 with ABCF1. Also, the co-IP/MS count with RPL29 turned out to be 6; with CSPG4, 12; with RBMX, 2; with RPL18A, 12; with NCL, 11; in the test with HSPA5 it was 130. Besides, the co-IP/MS count is 11 in the test with TM9SF3; 2 with PGK1; 2 in the test with RAB1B; 8 in the test with SLC25A1; 9 with SLC25A3; 8 in the test with LOXL4. In addition, the co-IP/MS count was 2 with CEP170; 2 with PPIB; 2 with MAP1B; 8 with DPM1; 8 with TRIM28; 2 in the test with GNAS. The co-IP/MS count with SLC25A10 was 6; with HSPH1 it was 7; in the test with CALM2 it was 2; in the test with MYO1D, 2; in the test with CNP, 7; with LRPPRC it was 9. Moreover, the values for the co-IP/MS count in the test with TNC, with RNASE1 and with SMN1 were 10, 2 and 14, respectively.
With “N-terminal FLAG tagged B3GNT2 (from UniProt Q9NY97 1-397) (enzyme)”, the co-IP/MS count, N-term FLAG in the test with LUC7L3 (human) was 4. The co-IP mass spectrometry count with C1orf68 (human) is 13; with GGCT (human), 3.

(Values after US20240261333A1, “NOVEL TARGETS FOR ENHANCING ANTI-TUMOR IMMUNITY” (THE BROAD INSTITUTE, INC., priority 2021, published 2024).)
